According to US11202837B2, “Biological materials and uses thereof” (Antikor Biopharma Limited, priority 2014, dated 2021):
Converted amounts (≈) assume the structure as drawn. Read-outs that look alike come from different tables or passages of the source. Where a SMILES comes first, the peptide text is derived from it. [ ]: non-standard residue; d: D form. The star is where a group is joined. Dolaproine = CO[C@@H]([C@@H]1CCCN1)[C@@H](C)C(=O)O; Dil = CC[C@H](C)[C@H](NC)[C@@H](CC(=O)O)OC; NMe2Val = CC(C)[C@@H](C(=O)*)N(C)C; NMeV = CN[C@H](C(=O)O)C(C)C

What was measured:
SKBr3 cells = assay: Cell killing assay (MTS), SKBr3 cells; type: cell-based, human
Experimental: SKBr3, human breast cancer cell line, high HER2 expression levels, up to 1,000,000 receptors per cell [Lazar G A, et al Proc Natl Acad Sci USA. […] When confluency was 70-80%, cells were washed with PBS (2×10 ml) and incubated with trypsin for 5-7 min. Complete media was added and the cells were resuspended by pipetting. The cells were recovered by centrifugation (2 min, 2000 rpm), the supernatant was discarded, and the cells were resuspended in complete DMEM (5 ml). The cells were then counted using a haemocytometer and diluted accordingly. They were plated at 4500 cells/well (200 μl) using attachment factor and incubated overnight at 37° C., 5% CO2 in a humidified atmosphere. U87 is a non-HER2 expressing glioblastoma cell line and was grown in a similar way, plated at 1000 cells/well.
(§1) […] Cell viability was measured using the Promega Aqueous Cell-titre-96™ aqueous one solution cell proliferation kit according to manufacturer's instructions. Briefly, the media was removed and 100 μl of complete phenol red free media, pre-combined with MTS reagent, was added to the cells (20 μl of reagent per 100 μl of media). The plates were read on an ELISA plate reader at 490 nm after a 2 hr incubation in the dark (5% CO2, 37° C.).
(§2) The data (absorption units) were converted to % cell survival by using the untreated controls as the 100% cell survival and the Triton X-100 controls as the 100% cell death. The average absorption value for the latter was subtracted from all the rest of the data in order to get a suitable baseline. The averages were converted to survival and standard error values were obtained for each n value (as a % cell survival). […] Experiments were repeated at least 3 times for each compound tested and a set or an average of the data was plotted and fitted to obtain a dose response curve.
(§3) The cells were recovered by centrifugation (2 min, 2000 rpm), the supernatant was discarded, and the cells were resuspended in complete McCoy's 5A (5 ml). The cells were then counted using a haemocytometer and diluted accordingly. They were plated at 5000 cells/well (200 μl) using attachment factor and incubated overnight at 37° C., 5% CO2 in a humidified atmosphere. U87 is a non-HER2 expressing glioblastoma cell line [Zitron I M et al (2013) BMC Cancer 13:83] and was grown in a similar way, plated at 1000 cells/well (using DMEM media). BT474 is a HER2 expressing breast cancer cell line [Brockhoff G et al (2007) Cell Prolif 40:488-507] and was grown in a similar way, plated at 7500 cells/well (using RPMI media). NCI-N87 is a HER2 expressing gastric cancer cell line [Yamashita-Kashima Y et al (2013) Oncol. Rep 30:1087-93] and was grown in a similar way, plated at 7500 cells/well (using RPMI media).
as §1, with “kit (MTS reagent)” for “kit”
The data (absorption units) were converted to % cell survival by using the untreated controls as the 100% cell survival and the Triton X-100 controls as the 100% cell death. The average absorption value for the latter was subtracted from all the rest of the data in order to get a suitable baseline. The averages were converted to survival and standard error values were obtained for each n value (as a % cell survival).

BT474 cells = assay: Cell killing assay (MTS), BT474 cells; type: cell-based, human
Experimental: as §3
The cells were exposed to the various ADCs diluted in complete media for 96 hours at 37° C., 5% CO2 in a humidified atmosphere. Cell viability was measured using the Promega Aqueous Cell-titre-96™ aqueous one solution cell proliferation kit (MTS reagent) according to manufacturer's instructions. Briefly, the media was removed and 100 μl of complete phenol red free media, pre-combined with MTS reagent, was added to the cells (20 μl of reagent per 100 μl of media). The plates were read on an ELISA plate reader at 490 nm after a 2 hr incubation in the dark (5% CO2, 37° C.).
as §2, with “dose-response” for “dose response”

HER2 = HER2 (Homo sapiens, UniProt P04626); assay: Biacore SPR binding to immobilised HER2; conditions: immobilised HER2
Experimental: The binding affinity against immobilised HER2 target antigen was determined by Biacore SPR compared to the unmodified scFv on a Biacore T200. A standard amine-coupling method was used to prepare all Biacore surfaces (CM5 or CM3), as follows. Flow cells were activated individually by injecting a freshly mixed solution of 0.2M EDC in 0.05 M NHS at 30 μl/min. […] Excess NHS ester was deactivated using a 1 M ethanolamine solution. To measure the kinetics of the antibody and conjugate on the HER2 chip, a […] serial dilution (typically at 5, 2.5, 1.25, 0.6 μg/ml or lower for free antibody and 20, 10, 5, 2.5 μg/ml for the conjugates), was injected for 160 s at 30 μl/min, allowing a 900-s dissociation phase. The dissociation time was extended to 3600 s for the highest concentration. Surfaces were regenerated with 45 s injection of MgCl2 8M.
To evaluate binding ability, manual runs were performed at 30 μl/min with a 60 s injection of the desired compound followed by 60 s waiting time and a 45 s of regeneration at 10 μl/min using MgCl2 8M. All data was analysed using the software, BIAEvaluation.

[1] = SKBr3 Cells (HER2 +++), 4 hours incubation, Table 52
[2] = SKBr3 Cells (HER2 +++), 4 hours incubation, Table 52, read-out: IC50
[3] = SKBr3 Cells (HER2 +++), 96 hours incubation, Table 52
[4] = SKBr3 Cells (HER2 +++), 96 hours incubation, Table 52, read-out: IC50
[5] = 96 hours exposure, read-out: IC50 nM SKBr3 Cells (HER2+++)
[6] = BT474 Cells (HER2++), 96 hours, Table 47
[7] = BT474 Cells (HER2++), 96 hours, Table 47, read-out: IC50
[8] = SKBr3 Cells (HER2+++), 96 hours, Table 47
[9] = SKBr3 Cells (HER2+++), 96 hours, Table 47, read-out: IC50

CC[C@H](C)[C@@H]([C@@H](CC(=O)N1CCC[C@H]1[C@H](OC)[C@@H](C)C(=O)N[C@@H](Cc1ccccc1)C(=O)O)OC)N(C)C(=O)[C@@H](NC(=O)[C@H](C(C)C)N(C)C)C(C)C [Free Auristatin] (NMe2Val-V[Dil][Dolaproine]F-OH)
IC50 μg/ml (SKBr3 cells; [1]): 0.00181 µg/mL (≈ 2.43 nM) | IC50 (SKBr3 cells; [2]): > 100 nM | IC50 μg/ml (SKBr3 cells; [3]): 0.00081 µg/mL (≈ 1.09 nM) | IC50 (SKBr3 cells; [4]): > 10 nM

CC[C@H](C)[C@@H]([C@@H](CC(=O)N1CCC[C@H]1[C@H](OC)[C@@H](C)C(=O)N[C@@H](Cc1ccccc1)C(=O)O)OC)N(C)C(=O)[C@@H](NC(=O)[C@@H](NC)C(C)C)C(C)C [Free drug MMAF] (H-[NMeV]V[Dil][Dolaproine]F-OH)
IC50 (BT474 cells; Homo sapiens, BT-474, 96 h, read-out: IC50 pM): > 10000 pM

B1: scFv (TCT1067)-MMAF-C5 DAR 5.2 (conjugate)
scFv: SGSGGSGQVQLVQSGAEVKKPGESLKISCKGSGYSFTSYWIAWVRQMPGKGLEYMGLIYPGDSDTKYSPSFQGQVTISVDKSVSTAYLQWSSLKPSDSAVYFCARHDVGYCTDRTCAAWPEWLGVWGQGTLVTVSSGGGGSGGGGSGGGGSQSVLTQPPSVSAAPGQKVTISCSGSSSNIGNNYVSWYQQLPGTAPKLLIYGHTNRPAGVPDRFSGSKSGTSASLAISGFRSEDEADYYCASWDYTLSGWVFGGGTKLTVLMASMTGGQQMG
association rate (HER2): 1.8e+06 M⁻¹ s⁻¹ | dissociation rate (HER2): 3.4e-05 s⁻¹

B2: scFv (TCT1067)-Auristatin-F-C5 DAR 3.3 (conjugate)
scFv: B1 scFv
association rate (HER2): 556000 M⁻¹ s⁻¹ | dissociation rate (HER2): 1.82e-05 s⁻¹

B3: scFv (TCT1067)-Auristatin-F-C5 DAR 5.65 (conjugate)
scFv: B1 scFv
association rate (HER2): 336000 M⁻¹ s⁻¹ | dissociation rate (HER2): 1.35e-05 s⁻¹

B4: scFv (TCT1067)-Auristatin-F-C5 DAR 11.9 (conjugate)
scFv: B1 scFv
association rate (HER2): 21700 M⁻¹ s⁻¹ | dissociation rate (HER2): 1.76e-05 s⁻¹

B5: scFv (TCT)-P5C5, DAR = 5 (conjugate)
scFv: SGSGGSGQVQLVQSGAEVKKPGESLKISCKGSGYSFTSYWIAWVRQMPGKGLEYMGLIYPGDSDTKYSPSFQGQVTISVDKSVSTAYLQWSSLKPSDSAVYFCARHDVGYCSSSNCAAWPEYFQHWGQGTLVTVSSGGGGSGGGGSGGGGSQSVLTQPPSVSAAPGQKVTISCSGSSSNIGNNYVSWYQQLPGTAPKLLIYGHTNRPAGVPDRFSGSKSGTSASLAISGFRSEDEADYYCAAWDDSLSGWVFGGGTKLTVLMASMTGGQQMG
IC50 μg/ml SKBr3 Cells (HER2+++) (SKBr3 cells; 96 hours exposure): 1.33 ± 0.1 µg/mL | IC50 (SKBr3 cells; [5]): 47.5 ± 0.36 nM

B6: scFv (TCT)-P5C5, DAR = 8 (conjugate)
scFv: B5 scFv
IC50 μg/ml SKBr3 Cells (HER2+++) (SKBr3 cells; 96 hours exposure): 0.8 ± 0.1 µg/mL | IC50 (SKBr3 cells; [5]): 28 ± 0.36 nM

B7: scFv (TCT)-MMAF DAR 8 (conjugate)
scFv: B5 scFv
IC50 μg/ml (BT474 cells; [6]): 0.02 µg/mL | IC50 (BT474 cells; [7]): 714 pM | IC50 μg/ml (SKBr3 cells; [8]): 0.0053 µg/mL | IC50 (SKBr3 cells; [9]): 0.189 nM

B8: scFv (TCT1067)-MMAF DAR 8.7 (conjugate)
scFv: B1 scFv
IC50 μg/ml (BT474 cells; [6]): 0.001 µg/mL | IC50 (BT474 cells; [7]): 35.7 pM | IC50 μg/ml (SKBr3 cells; [8]): 0.00091 µg/mL | IC50 (SKBr3 cells; [9]): 0.0325 nM

B9: scFv (TCT1067)-P5C5 DAR 10.6 (conjugate)
scFv: B1 scFv
IC50 μg/ml (BT474 cells; BT474 Cells (HER2++), 96 hours, Table 48): 0.5 µg/mL | IC50 (BT474 cells; BT474 Cells (HER2++), 96 hours, Table 48, read-out: IC50): 17800 pM

B10: ScFv (TCT1067)-AF-C5 DAR 5.3 (conjugate)
scFv: B1 scFv
IC50 μg/ml (SKBr3 cells; [1]): 0.00181 µg/mL | IC50 (SKBr3 cells; [2]): 0.0644 nM | IC50 μg/ml (SKBr3 cells; [3]): 0.00081 µg/mL | IC50 (SKBr3 cells; [4]): 0.0288 nM
